The record followed here is patent US8114638B2, “Arabinitol dehydrogenase from Neurospora crassa” (The Board of Trustees of the University of Illinois, priority 2007, dated 2012).

The test system of the data set is OC[C@H](O)C(O)[C@@H](O)CO. Kind of data set: purified protein, by the assay type. The following applies: other: with indicated substrate, 25° C., 50 mM Tris pH 8.0, saturated NAD+ (2 mM).

Procedure: Initial rates were determined using a Varian Cary 100 Bio UV-visible spectrophotometer (Varian) at 25° C. in 50 mM Tris (pH 8.0). […] The kinetic data were analyzed with a modified version of Cleland's program (Cleland, W. W. (1979) Statistical analysis of enzyme kinetic data, Methods Enzymol 63, 103-138.).
Kinetics. The data were used to calculate the kinetic constants for various substrates by fitting the Michaelis-Menten equation using Origin 5.0. […] The data represent averages of assays performed in duplicate or triplicate on two separate occasions.

For N. crassa LAD (Neurospora crassa OR74A), the Km worked out at 18 ± 2 mM, the kcat worked out at 20.2 ± 0.5 s⁻¹ and the kcat/Km came out at 1120 M⁻¹ s⁻¹.
